{"source": "the DeepSol protein solubility set", "data": [{"assay": "soluble on expression in E. coli; label from the status in PepcDB or PDB records", "values": [{"sequence": "MGSDKIHHHHHHVRVTSSSGSCITIPTGVTNVTIRDSEIGPCGQPGDTSAKGIDIQSGASNITVQRNYIHDMATALYAAGARHPIIFDRNRVTNIRGPFPRGQMVQFNGVKSGTSGSKVTCNVSDVQGATYSNVEDHINMYDSGGLSNDRTEIAYNRLRGGSPTSNSGTAIMVGDGASGGNAWVHHNTIVNVRNVGIGVAGGTNIDVESNRIYMDRAATYTNVGLYVWSQGGGSCSGHSVTGNRAWVNSSNGAQNPWWNGGNCGAVELVSNVWGDTSLSSSMFNEVPSQCQ", "soluble on expression in E. coli": "not soluble"}, {"sequence": "MQIALAPMEGLVDEILRDVLTRVGGIDWCVTEFIRITDRLLPATAFHKLAPELRDGSRTRAGTPMRVQLLGSDPACLADNAAFACELGAPVIDLNFGCPAKTVNRSRGGAVLLKEPELMHDIVAAVRRAVPSEIAVTSKMRLGYDSPDGALDCARALADGGSAHVVVHARTKVDGYRPPAHWEWVARVAEAVRVPVFANGEVWTLDDYLRCREVSGVEDIMLGRGLVSRPGLARQIAAWRDGGEIREMPWSELLPLLRDFWLQARRKLAPRYAPGRLKQWLGMLTRTYPEAVELFARIRRESDCETIDR", "soluble on expression in E. coli": "not soluble"}, {"sequence": "MKYKSGIFAAIHETMQGLHDIGAIDKKTMRGFDKSCLTEIKPLSGGDIKAIREKEALSQAAFAIYLNVGKNHVSAWERGVKKPSGAALKLLTIVKNKGIEAIA", "soluble on expression in E. coli": "not soluble"}, {"sequence": "MGSDKIHHHHHHMLEFTKRSLMNKYNINERVLELYERALNDVEKEFKYYDEIREYNQLKVLKAFQEERISESHFTNSSGYGYNDIGRDSLDRVYANIFNTESAFVRPHFVNGTHAIGAALFGNLRPNDTMMSICGMPYDTLHDIIGMDDSKKVGSLREYGVKYKMVDLKDGKVDINTVKEELKKDDSIKLIHIQRSTGYGWRKSLRIAEIAEIIKSIREVNENVIVFVDNCYGEFVEEKEPTDVGADIIAGSLIKNIGGGIATTGGYIAGKEEYVTQATFRVTVPGIGGECGSTFGVMRSLYEGLFMAPHVTIEAVKGAVFCARIMELAGFDVLPKYNDKRTDIIQAIKFNDEKKLIDFIKGIQTASPVDSFVQCEAWDMPGYEDKVIMAAGTFVQGASIELSADAPIREPYIGYLQGGLTFDHAKLGVLIALSKLIM", "soluble on expression in E. coli": "not soluble"}, {"sequence": "MEAYDICKFWKLDMLEEFSQIVLKGKKKIILDIPSPSQQNKSDIVSLCPADSPETCNSSIPDWLVKVMRKENGYDPKLIIKRRVLCTTDLRKNQGCLSMHLSKLEKSDFLTEDETRFLDEDFLKAKRDGLKVFLVDPESDKHVVYLKKWNGNTVWKYVLSHGWNNVIDKKIFKVNDVIEIWSFRDGSGKLCFALSSPTRCGRSSSGHSS", "soluble on expression in E. coli": "soluble"}, {"sequence": "GMMYTNDNRIVMTLDAGGTNFVFSAIQGGKEIADPVVLPACADCLDKCLGNLVEGFKAIQAGLPEAPVAISFAFPGPADYQAGIIGDLPNFPSFRGGVALGPFLEDIFGIPVFINNDGSLFAYGEALTGVLPEINRRLREAGSTKRYKNLLGVTLGTGFGAGVVIDGELLRGDNAAGGYVWCLRNKKYPEYIVEESVSIRAVMRVYAERSGDAGARTPKEIFEIAEGIRPGNREAAIAAFEELGEMAGDALASAITLIDGLIVIGGGLSGASKYILPVLLKEMNAQTGMMDGARFGRLQKEVYDLDEEKSFAGFARGEAVEVLVPGTNRKVGYDPCKRIGVTFSKQGANRSIAMGAYVFALNHLSK", "soluble on expression in E. coli": "soluble"}, {"sequence": "MAHHHHHHMDTRGLRHLKSYLGKEGEQLARAKRASDVVPVLAARQAAAAAAARATAADVTTVSNTVPAPLSPSVMKYLGGRLASGATHKLSRTQMALAAALAAPGAPSTRGHAEGSENGETALAVTRAKVADMAAAVDTLAVSALELAARRAAEDTEARRSTAESSSLFVLVDTSSEAAEVAGQLEGRYGLTVLLLRDDNACRHPTFPSPASRAGVSTLRGTTSKTPAAERRKTKSNSRTVDEVAPKDEATESTPALAGAVVVVVATPAAFLAVDRRSAIWKFIGSCALLLRRAPTHTGSLLHTLKGIKAAASSSPTKTTPHALNAQRWACIGHVPAIAVLAAEQKWLTEPELDLLTTLRVERHVGSGVGVVSKSTEASVSSAVAALRAPVTVHYAVAQGTHRFQFLFGLLKGLAPHRGIVVHVATRECVAFLYDTLYSLVGELPSHVQLLSDYEGASAYTNMHTTADRQRLCVAFDSTVESGQNGKTAAVLLSCHGLVPRRGSVFLQYDVIPDLLNYNQFIAEVLSPGAVAADAGNDAGGTAPSAAAEVAVRRERMARRRKRSTSPTPAPVAARRVGADAANSAADASSGSKAAIPAAVNYTHILLLFRPNEVAGALRHLRRDGASRYRLEFRELGPRAGGRYFLIGEKLKSMNKKLFPVQNAAYDAYKATMRTYSTIGPRDVYDETKVSLEKVAEEFGYTELPLLDLRLKDTVFRPKEDYYRAARQKQDAERRAYKAFVQGNIVGESPEEHVADSVA", "soluble on expression in E. coli": "soluble"}, {"sequence": "MGGSHHHHHHGMASALLDIECFTYLHRALESSIAPIVIFASNRGNCVIRGTEDITSPHGIPLDLLDRVMIIRTMLYTPQEMKQIIKIRAQTEGINISEEALNHLGEIGTKTTLRYSVQLLTPANLLAKINGKDSIEKEHVEEISELFYDAKSSAKILADQQDKYMK", "soluble on expression in E. coli": "not soluble"}, {"sequence": "LSPLEARVIGCLIEKEVTTPDHYPLTLNSLTTACNQKSNREPVLNLSEAEVQDTVEGLIARRLVSDESSFNSRTSKYQHRFCNTEFGDLKLNQQELGLICCLLLRGAQTPGELRTRTNRLCTFTDVKETEAVLERLANRDSGALVVKLPREPGKRESRYHHLFCGEVDMAAFATSSDNE", "soluble on expression in E. coli": "not soluble"}, {"sequence": "PGTESTFSNCYALNVEVVSLDSGDQAVLGGFVGQVSANFIAKHCYVSAKVTGGKNPGAFVGMTADESMNCKYDGCFYNNEQNP", "soluble on expression in E. coli": "not soluble"}, {"sequence": "HDLALSGNAYKVRLFLSLIGREATLRPVDFLNREHKTQAFLRMNPRGQIPVLEDGELQLGDSHAILVYLARRHADPVWYPLDPVSQGRIAYWLSYSANEVQNGPASARLITRFNLPLDREQTHQRGLEVLRLVDRHLAEHRWLAQGEQPSIADVALYPYLALAPEGGLALDHYPALNAWIARIRALPGYIPMPGL", "soluble on expression in E. coli": "not soluble"}, {"sequence": "MKPALHAIDATLPAPPTYTPAGNECALFEHAWKRRVPLLLKGPTGCGKTRFVAHMAARLGLPLFTVSCHDDLTAADLTGRYLLKGGETVWVDGPLTRAVRQGGICYLDEVVEARKDVAVVLHPLADDRRVLPLERTGEELQAPPHFMLVVSYNPGYQSLLKALKPSTRQRFAAIEFGFLAPEQEIAVVAAESGLPSERVAPLVALAGRLRKLKGHDLEEGVSTRLLVYCASLISEGLPVRDAVLAGLIEPLTDDADVKAALIEVAGVVIGLEHHHHHH", "soluble on expression in E. coli": "soluble"}, {"sequence": "MQVDINVNVVEKPTGAIMFGAGYSDREGIILNGSIAQNNILGTGNFLSLQVNTGSVNKVISASFNNPYYTINGVSLGLEAFKRDINTRSLSSVGMFNTDTTGANIRFGIPVAENDIVSLGLGYEHTKIDLRDDSPQRFKDFVDQFGKTSNNLPITLSWARDRRNSAIWTTSGMTQRLFGEFGLPFGDLNYYKVSYEQRWFFPVTKMFTLMLNGEVGVGDGYSDKPLPFFKNFFAGGFNSVRGYNINTLGPRDSDDRVLGGSKRIVGNIEVLFPVPFMKEDKSVRLSAFADGGTIVNSFSGLGFDDFRYSAGLAATWISPMGPLKFSVAQPLNNQSGDKLQRFQFQFGQTFLEHHHHHH", "soluble on expression in E. coli": "not soluble"}, {"sequence": "MNKKSSSMVNMPAPREPINQKIDTNNALVLNHNAIYEQRLAEITQSNTCDKAIVTVNPYGTAPLSLYLGVWMDEAAALEINVVDSEATTEEVRYQYDVHPGANLIPVCGMVSAVNNQITLRLASQIVGQYTVMTDALPPTDSANVSLGFPIISVSCPAQQASLMEEGLYFSTYFDRYNLAFDHNGIVRWYVSQEIPSYNFVRMDNGHFLATSQGINHCLNMYEFDIMGRVYTVYLLDNEFHHSILPIENNLAIAPSEYSNGRPDGYSTGKDGVSIINLSTGLEVAYYDMLYVMDYSRSPRPSGSAPGQDVSMDDWLHINQSYINEPNNLLICSGRHQSAIFGVNVDSGELRFIMANHEDWSDEFKQYLLTPVDDDGVPLYDLTSPGGIDAADKNFWTWGQHNIVEIPNDEPGILEFMVFDNGNYRSREDAKSLLPLDNFSRVVQFKINLNTMTVTRPYEYGKTEVGNRGYSSFVSAKHLLTNGHLVIHFGATTVDEFEHTITAQPGSSDLVDPDEGQQALGRLVLQEINKETKEVLFEAMVTSGYFKNEETNGTNYRYDISAFRVYKMPLFALEHHHHHH", "soluble on expression in E. coli": "soluble"}, {"sequence": "MGSDKIHHHHHHMKLDPTSPSLNIMLANPRGFCAGVDRAISIVERALELFSPPIYVRHEVVHNRYVVQNLKDRGAVFVEELDQVPDNNIVIFSAHGVSQAVRQEAKARGLRVFDATCPLVTKVHLQVTRASRKGIECILIGHEGHPEVEGTMGQYDNPNGGVYLIESPADVDALEVRDPNNLCFVTQTTLSVDDTLDIIAALQKRFPSIEGPRKDDICYATQNRQDAVRNLSADVDLLIVVGSKNSSNSNRLRELALKTGTQSYLVDTADDVESSWFDNVSRVAVTAGASAPEVLVQQVVQAIAKLAPSVVTEVEGRKEDTVFAVPAELR", "soluble on expression in E. coli": "not soluble"}, {"sequence": "MGHHHHHHSHMVALSNALSRVFGSLAGYKFPSFIQKGINALYVKIFKIDLSEFEPLENYRSLNALFTRSLKKERPFDKSPNICIAPCDALITECAFLDNDSALQIKGMPYKAHELVGEINPLSPSFFYANFYLSPKDYHHYHAPCDLEILEARYFAGKLLPVNKPSLHKNNNLFVGNERVTLVAKDIQGNRLYFVAVGALNVGKMRFNFDKNIQTNAKARFTQTYSYNPPIKVKKGDNLGNFEMGSTIVLFIQNTAFKDLKEKNVKFGESIGEFHAN", "soluble on expression in E. coli": "not soluble"}, {"sequence": "MQTEFLTGAPTRSAAFPVTGGDWGTAGILQTPTARMNDAGEASLSMSHVSPYTRLNFALQPLDWLEIGFRYTDVSNQPYGPVSLSGTQSYKDKSIDAKIRLWRESAYLPDVAVGFRDIAGSGLFSGEYLVASKRTGPFDWSVGLGWGYMGARGNLRNPLSMISRRFDDRANSATPNGGELGYGSWFRGRVSPFGGVQYQTPDERLILKAEYDGNDYRHEPFGQVLKERSPFNFGAVYRATRNIDLSVGFERGTRVMFGVSLHGNLKRATMPKLGNPPPVPVTQPAANAGPRTHAAGAPTRGGRSAVASTPRIEGASPSPFDRDWSDTVAQLQAQTNWHVRSIRALGMDLVIEFDDVDAFYLQDQIDRIATILNRDAPLNVRTFHVVALTHGVPVADYQVQRTQWFASRTRALVPSEVAPATTLGRPLTNQSIDMLPPLFEQRPRAFVLSVGPGYQQTLGGPNGFLLYQISANAYGELRMPGGAWLGGELNVGLVDNYGKFTYTADSKLPRVRTYLREYLTTSRVTLPLLQLTKIGRLGNDQFYSVYGGLLESMFAGVGVEWLYRPAHSRLAIGVDVNAVRQRGFRQDFSMRGYKTLTGHVTAYWDTGWQGVQINLSVGQYLAKDKGATLDISRRFRNGVVIGAYATKTNVSPAQFGEGSFDKGIYVTIPFDAMMTRSSSSIANLRWNPVTRDGGAKLDRRYPLYDLTDMGERRSLWYAPPDGAVSPLEHHHHHH", "soluble on expression in E. coli": "not soluble"}, {"sequence": "MNKDVSLGQPIVRYEDGKLFNTTDQYVTEFPLTIMVNGEEFATVICSPTNLEELVIGFLASEGAILKRDELKSVLIDDSKGFAHVELNKDLGDRFQYSTKRMIASCCGKSREFYFQNDAAIAKTSMSKITLTPIQIINMMTRLQSASHIYQETGGLHNAAISDGLTFFVHRQDIGRHNALDKLYGFCIQRHITVRDKVLIFSGRISSEILIKAAKIGVGVILSKSAPTTLAVTLANDLNITAVGFIRNGGFNIYSHPERIIDSEQ", "soluble on expression in E. coli": "not soluble"}]}]}
